How the values were obtained:
HeLa Kyoto [1] = assay: solubility change mitosis vs G1/S (difference of NP-40 vs SDS log2 ratios) (log2 ratio difference); higher = more soluble in mitosis
HeLa Kyoto [2] = assay: solubility in G1/S (NP-40 vs SDS abundance) (log2 ratio); higher = more soluble; conditions: cell cycle stage: G1/S
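For solubility change mitosis vs G1/S (difference of NP-40 vs SDS log2 ratios) in this document: synchronized HeLa Kyoto cells (double thymidine block for G1/S, nocodazole release for mitosis), protein amounts in NP-40 versus SDS lysates quantified by mass spectrometry, three biological replicates.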
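For solubility in G1/S (NP-40 vs SDS abundance) in this document: HeLa Kyoto cells arrested at G1/S by double thymidine block, proteins quantified by TMT10plex mass spectrometry in mild NP-40 versus SDS extracts, three biological replicates.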

NEK6, sequence (chain, as listed by the source): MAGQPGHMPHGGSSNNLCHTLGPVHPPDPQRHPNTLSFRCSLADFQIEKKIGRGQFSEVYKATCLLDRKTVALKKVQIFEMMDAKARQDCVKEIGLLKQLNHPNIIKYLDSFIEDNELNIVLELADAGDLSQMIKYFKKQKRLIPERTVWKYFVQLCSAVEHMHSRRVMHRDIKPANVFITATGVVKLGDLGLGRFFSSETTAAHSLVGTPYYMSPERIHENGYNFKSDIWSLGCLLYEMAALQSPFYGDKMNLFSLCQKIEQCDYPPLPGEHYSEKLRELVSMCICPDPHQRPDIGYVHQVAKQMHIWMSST

Substance	solubility change mitosis (log2) (HeLa Kyoto [1])	solubility in G1/S (log2) (HeLa Kyoto [2])
NEK6	-0.09	0.1
MQVPQDGEDLAGQPWYHGLLSRQKAEALLQQNGDFLVRASGSRGGNPVISCRWRGSALHFEVFRVALRPRPGRPTALFQLEDEQFPSIPALVHSYMTGRRPLSQATGAVVSRPVTWQGPLRRSFSEDTLMDGPARIEPLRARKWSNSQPADLAHMGRSREDPAGMEASTMPISALPRTSSDPVLLKAPAPLGTVADSLRASDGQLQAKAPTKPPRTPSFELPDASERPPTYCELVPRVPSVQGTSPSQSCPEPEAPWWEAEEDEEEENRCFTRPQAEISFCPHDAPSCLLGPQNRPLEPQVLHTLRGLFLEHHPGSTALHLLLVDCQATGLLGVTRDQRGNMGVSSGLELLTLPHGHHLRLELLERHQTLALAGALAVLGCSGPLEERAAALRGLVELALALRPGAAGDLPGLAAVMGALLMPQVSRLEHTWRQLRRSHTEAALAFEQELKPLMRALDEGAGPCDPGEVALPHVAPMVRLLEGEEVAGPLDESCERLLRTLHGARHMVRDAPKFRKVAAQRLRGFRPNPELREALTTGFVRRLLWGSRGAGAPRAERFEKFQRVLGVLSQRLEPDR [SH2D3A]	0.0323	0.386
MTPLVSRLSRLWAIMRKPRAAVGSGHRKQAASQEGRQKHAKNNSQAKPSACDGMIAECPGAPAGLARQPEEVVLQASVSSYHLFRDVAEVTAFRGSLLSWYDQEKRDLPWRRRAEDEMDLDRRAYAVWVSEVMLQQTQVATVINYYTGWMQKWPTLQDLASASLEEVNQLWAGLGYYSRGRRLQEGARKVVEELGGHMPRTAETLQQLLPGVGRYTAGAIASIAFGQATGVVDGNVARVLCRVRAIGADPSSTLVSQQLWGLAQQLVDPARPGDFNQAAMELGATVCTPQRPLCSQCPVESLCRARQRVEQEQLLASGSLSGSPDVEECAPNTGQCHLCLPPSEPWDQTLGVVNFPRKASRKPPREESSATCVLEQPGALGAQILLVQRPNSGLLAGLWEFPSVTWEPSEQLQRKALLQELQRWAGPLPATHLRHLGEVVHTFSHIKLTYQVYGLALEGQTPVTTVPPGARWLTQEEFHTAAVSTAMKKVFRVYQGQQPGTCMGSKRSQVSSPCSRKKPRMGQQVLDNFFRSHISTDAHSLNSAAQ [MUTYH]	-0.0934	0.104
MASSHSSSPVPQGSSSDVFFKIEVDPSKHIRPVPSLPDVCPKEPTGDSHSLYVAPSLVTDQHRWTVYHSKVNLPAALNDPRLAKRESDFFTKTWGLDFVDTEVIPSFYLPQISKEHFTVYQQEISQREKIHERCKNICPPKDTFERTLLHTHDKSRTDLEQVPKIFMKPDFALDDSLTFNSVLPWSHFNTAGGKGNRDAASSKLLQEKLSHYLDIVEVNIAHQISLRSEAFFHAMTSQHELQDYLRKTSQAVKMLRDKIAQIDKVMCEGSLHILRLALTRNNCVKVYNKLKLMATVHQTQPTVQVLLSTSEFVGALDLIATTQEVLQQELQGIHSFRHLGSQLCELEKLIDKMMIAEFSTYSHSDLNRPLEDDCQVLEEERLISLVFGLLKQRKLNFLEIYGEKMVITAKNIIKQCVINKVSQTEEIDTDVVVKLADQMRMLNFPQWFDLLKDIFSKFTIFLQRVKATLNIIHSVVLSVLDKNQRTRELEEISQQKNAAKDNSLDTEVAYLIHEGMFISDAFGEGELTPIAVDTTSQRNASPNSEPCSSDSVSEPECTTDSSSSKEHTSSSAIPGGVDIMVSEDMKLTDSELGKLANNIQELLYSASDICHDRAVKFLMSRAKDGFLEKLNSMEFITLSRLMETFILDTEQICGRKSTSLLGALQSQAIKFVNRFHEERKTKLSLLLDNERWKQADVPAEFQDLVDSLSDGKIALPEKKSGATEERKPAEVLIVEGQQYAVVGTVLLLIRIILEYCQCVDNIPSVTTDMLTRLSDLLKYFNSRSCQLVLGAGALQVVGLKTITTKNLALSSRCLQLIVHYIPVIRAHFEARLPPKQYSMLRHFDHITKDYHDHIAEISAKLVAIMDSLFDKLLSKYEVKAPVPSACFRNICKQMTKMHEAIFDLLPEEQTQMLFLRINASYKLHLKKQLSHLNVINDGGPQNGLVTADVAFYTGNLQALKGLKDLDLNMAEIWEQKR [VPS54]	0.126	-0.136
MLGTVKMEGHETSDWNSYYADTQEAYSSVPVSNMNSGLGSMNSMNTYMTMNTMTTSGNMTPASFNMSYANPGLGAGLSPGAVAGMPGGSAGAMNSMTAAGVTAMGTALSPSGMGAMGAQQAASMNGLGPYAAAMNPCMSPMAYAPSNLGRSRAGGGGDAKTFKRSYPHAKPPYSYISLITMAIQQAPSKMLTLSEIYQWIMDLFPYYRQNQQRWQNSIRHSLSFNDCFVKVARSPDKPGKGSYWTLHPDSGNMFENGCYLRRQKRFKCEKQPGAGGGGGSGSGGSGAKGGPESRKDPSGASNPSADSPLHRGVHGKTGQLEGAPAPGPAASPQTLDHSGATATGGASELKTPASSTAPPISSGPGALASVPASHPAHGLAPHESQLHLKGDPHYSFNHPFSINNLMSSSEQQHKLDFKAYEQALQYSPYGSTLPASLPLGSASVTTRSPIEPSALEPAYYQGVYSRPVLNTS [FOXA1]	0.0934	0.392
MELAQEARELGCWAVEEMGVPVAARAPESTLRRLCLGQGADIWAYILQHVHSQRTVKKIRGNLLWYGHQDSPQVRRKLELEAAVTRLRAEIQELDQSLELMERDTEAQDTAMEQARQHTQDTQRRALLLRAQAGAMRRQQHTLRDPMQRLQNQLRRLQDMERKAKVDVTFGSLTSAALGLEPVVLRDVRTACTLRAQFLQNLLLPQAKRGSLPTPHDDHFGTSYQQWLSSVETLLTNHPPGHVLAALEHLAAEREAEIRSLCSGDGLGDTEISRPQAPDQSDSSQTLPSMVHLIQEGWRTVGVLVSQRSTLLKERQVLTQRLQGLVEEVERRVLGSSERQVLILGLRRCCLWTELKALHDQSQELQDAAGHRQLLLRELQAKQQRILHWRQLVEETQEQVRLLIKGNSASKTRLCRSPGEVLALVQRKVVPTFEAVAPQSRELLRCLEEEVRHLPHILLGTLLRHRPGELKPLPTVLPSIHQLHPASPRGSSFIALSHKLGLPPGKASELLLPAAASLRQDLLLLQDQRSLWCWDLLHMKTSLPPGLPTQELLQIQASQEKQQKENLGQALKRLEKLLKQALERIPELQGIVGDWWEQPGQAALSEELCQGLSLPQWRLRWVQAQGALQKLCS [HAUS5]	-0.0591	0.307
MAETSPEPSGQLVVHSDAHSDTVLASFEDQRKKGFLCDITLIVENVHFRAHKALLAASSEYFSMMFAEEGEIGQSIYMLEGMVADTFGILLEFIYTGYLHASEKSTEQILATAQFLKVYDLVKAYTDFQNNHSSPKPTTLNTAGAPVVVISNKKNDPPKRKRGRPKKVNTLQEEKSELAAEEEIQLRVNNSVQNRQNFVVKGDSGVLNEQIAAKEKEESEPTCEPSREEEMPVEKDENYDPKTEDGQASQSRYSKRRIWRSVKLKDYKLVGDQEDHGSAKRICGRRKRPGGPEARCKDCGKVFKYNHFLAIHQRSHTGERPFKCNECGKGFAQKHSLQVHTRMHTGERPYTCTVCSKALTTKHSLLEHMSLHSGQKSFTCDQCGKYFSQNRQLKSHYRVHTGHSLPECKDCHRKFMDVSQLKKHLRTHTGEKPFTCEICGKSFTAKSSLQTHIRIHRGEKPYSCGICGKSFSDSSAKRRHCILHTGKKPFSCPECNLQFARLDNLKAHLKIHSKEKHASDASSISGSSNTEEVRNILQLQPYQLSTSGEQEIQLLVTDSVHNINFMPGPSQGISIVTAESSQNMTADQAANLTLLTQQPEQLQNLILSAQQEQTEHIQSLNMIESQMGPSQTEPVHVITLSKETLEHLHAHQEQTEELHLATSTSDPAQHLQLTQEPGPPPPTHHVPQPTPLGQEQS [ZBTB24]	0.142	-0.495
MAKSNGENGPRAPAAGESLSGTRESLAQGPDAATTDELSSLGSDSEANGFAERRIDKFGFIVGSQGAEGALEEVPLEVLRQRESKWLDMLNNWDKWMAKKHKKIRLRCQKGIPPSLRGRAWQYLSGGKVKLQQNPGKFDELDMSPGDPKWLDVIERDLHRQFPFHEMFVSRGGHGQQDLFRVLKAYTLYRPEEGYCQAQAPIAAVLLMHMPAEQAFWCLVQICEKYLPGYYSEKLEAIQLDGEILFSLLQKVSPVAHKHLSRQKIDPLLYMTEWFMCAFSRTLPWSSVLRVWDMFFCEGVKIIFRVGLVLLKHALGSPEKVKACQGQYETIERLRSLSPKIMQEAFLVQEVVELPVTERQIEREHLIQLRRWQETRGELQCRSPPRLHGAKAILDAEPGPRPALQPSPSIRLPLDAPLPGSKAKPKPPKQAQKEQRKQMKGRGQLEKPPAPNQAMVVAAAGDACPPQHVPPKDSAPKDSAPQDLAPQVSAHHRSQESLTSQESEDTYL [TBC1D10A]	-0.147	0.438
MMGSKMASASRVVQVVKPHTPLIRFPDRRDNPKPNVSEALRSAGLPSHSSVISQHSKGSKSPDLLMYQGPPDTAEIIKTLPQKYRRKLVSQEEMEFIQRGGPE [MRPS36]	0.401	0.138
ICE1	0.51	-0.864
RAI1	0.596	-0.769
MCAQYCISFADVEKAHINIRDSIHLTPVLTSSILNQLTGRNLFFKCELFQKTGSFKIRGALNAVRSLVPDALERKPKAVVTHSSGNHGQALTYAAKLEGIPAYIVVPQTAPDCKKLAIQAYGASIVYCEPSDESRENVAKRVTEETEGIMVHPNQEPAVIAGQGTIALEVLNQVPLVDALVVPVGGGGMLAGIAITVKALKPSVKVYAAEPSNADDCYQSKLKGKLMPNLYPPETIADGVKSSIGLNTWPIIRDLVDDIFTVTEDEIKCATQLVWERMKLLIEPTAGVGVAAVLSQHFQTVSPEVKNICIVLSGGNVDLTSSITWVKQAERPASYQSVSV [SRR]	0.0667	0.0946
MDGAVMEGPLFLQSQRFGTKRWRKTWAVLYPASPHGVARLEFFDHKGSSSGGGRGSSRRLDCKVIRLAECVSVAPVTVETPPEPGATAFRLDTAQRSHLLAADAPSSAAWVQTLCRNAFPKGSWTLAPTDNPPKLSALEMLENSLYSPTWEGSQFWVTVQRTEAAERCGLHGSYVLRVEAERLTLLTVGAQSQILEPLLSWPYTLLRRYGRDKVMFSFEAGRRCPSGPGTFTFQTAQGNDIFQAVETAIHRQKAQGKAGQGHDVLRADSHEGEVAEGKLPSPPGPQELLDSPPALYAEPLDSLRIAPCPSQDSLYSDPLDSTSAQAGEGVQRKKPLYWDLYEHAQQQLLKAKLTDPKEDPIYDEPEGLAPVPPQGLYDLPREPKDAWWCQARVKEEGYELPYNPATDDYAVPPPRSTKPLLAPKPQGPAFPEPGTATGSGIKSHNSALYSQVQKSGASGSWDCGLSRVGTDKTGVKSEGST [DOK1]	0.00435	-0.257
